{"source": "patent US20030060435", "proteins": {"B1": {"name": "bovine m-calpain (Sigma) (protein)", "chain 1": "AGIAAKLAKDREAAEGLGSHERAVKYLNQDYAALRDECLEAGALFQDPSFPALPSSLGFKELGPYSSKTRGIEWKRPTEICDNPQFITGGATRTDICQGALGDCWLLAAIASLTLNEEILARVVPLDQSFQENYAGIFHFQFWQYGEWVEVVVDDRLPTKDGELLFVHSAEGSEFWSALLEKAYAKINGCYEALSGGATTEGFEDFTGGIAEWYELRKAPPNLFRIIQKALQKGSLLGCSIDITSAADSEAITFQKLVKGHAYSVTGAEEVESRGSLQKLIRIRNPWGEVEWTGQWNDNCPNWNTVDPEVRETLTRQHEDGEFWMSFNDFLRHYSRLEICNLTPDTLTSDSYKKWKLTKMDGNWRRGSTAGGCRNYPNTFWMNPQYLIKLEEEDEDQEDGESGCTFLVGLIQKHRRRQRKMGEDMHTIGFGIYEVPEELTGQTNIHLSKKFFLTTRARERSDTFINLREVLNRFKLPPGEYIVVPSTFEPNKDGDFCIRVFSEKKADYQVVDDEIEANIDEIDISEDDIDDGFRRLFAQLAGEDAEISAFELQTILRRVLAKRQDIKSDGFSIETCKIMVDMLDSDGSGKLGLKEFYILWTKIQKYQKIYREIDVDRSGTMNSYEMRKALEEAGFKMPCQLHQVIVARFADDDLIIDFDNFVRCLIRLETLFRIFKQLDPENTGMIQLDLISWLSFSVL", "chain 2": "MFLVNSFLKGGGGGGGGGGLGGGLGNVLGGLISGAGGGGGGGGGGGGGGGGTAMRILGGVISAISEAAAQYNPEPVPPRTHYSNIEANESEEVRQFRRLFAQLAGDDMEVSATELMNILNKVVTRHPDLKTDGFGIDTCRSMVAVMDSDTTGKLGFEEFKYLWNNIKKWQAVYKQFDVDRSGTIGSSELPGAFEAAGFRLNEHLYNMIIRRYSDEGGNMDFDNFISCLVRLDAMFRAFKSLDKDGTGQIQVNIQEWLQLTMYS"}}, "key": {"[1]": {"biological_target": "human wild-type p53 protein, P04637", "sequence (P04637 whole entry, looked up)": "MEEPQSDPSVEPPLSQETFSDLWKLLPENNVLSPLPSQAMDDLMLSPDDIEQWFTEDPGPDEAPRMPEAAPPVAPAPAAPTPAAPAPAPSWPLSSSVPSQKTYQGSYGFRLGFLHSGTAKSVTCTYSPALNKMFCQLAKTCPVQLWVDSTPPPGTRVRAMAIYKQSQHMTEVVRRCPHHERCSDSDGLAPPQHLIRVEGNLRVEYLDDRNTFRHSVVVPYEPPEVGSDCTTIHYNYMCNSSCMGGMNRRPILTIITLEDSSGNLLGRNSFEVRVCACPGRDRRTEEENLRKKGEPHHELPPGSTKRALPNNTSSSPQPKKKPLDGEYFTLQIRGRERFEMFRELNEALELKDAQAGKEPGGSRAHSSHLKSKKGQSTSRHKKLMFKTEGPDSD"}, "[2]": {"biological_target": "T1, mouse wild-type p53 protein, P02340", "T1 chain": "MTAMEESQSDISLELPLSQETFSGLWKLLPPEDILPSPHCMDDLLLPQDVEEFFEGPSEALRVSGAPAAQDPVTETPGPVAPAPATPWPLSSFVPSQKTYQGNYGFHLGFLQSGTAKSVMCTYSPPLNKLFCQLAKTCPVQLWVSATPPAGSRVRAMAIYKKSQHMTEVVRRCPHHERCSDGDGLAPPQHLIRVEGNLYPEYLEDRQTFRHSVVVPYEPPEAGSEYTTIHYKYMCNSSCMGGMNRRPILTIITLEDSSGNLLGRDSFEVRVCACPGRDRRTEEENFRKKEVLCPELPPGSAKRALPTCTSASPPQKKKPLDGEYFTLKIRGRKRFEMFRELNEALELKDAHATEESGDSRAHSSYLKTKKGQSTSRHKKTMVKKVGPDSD"}, "[3]": {"biological_target": "glyceraldehyde-3-phosphate dehydrogenase"}}}
{"protein": "B1", "values": [{"measurement": "degradation of the in vitro translated protein in reticulocyte lysate with calcium (electrophoresis)", "setting": "[1]", "result": "led to the rapid disappearance of the neosynthesized proteins and the appearance of proteolytic fragments"}, {"measurement": "degradation of the protein in reticulocyte lysate with calcium and m-calpain", "setting": "dihydrofolate reductase", "result": "The degradation resistance of other proteins such as dihydrofolate reductase or glyceraldehyde-3-phosphate dehydrogenase under the same experimental conditions"}, {"measurement": "degradation of the in vitro translated protein in reticulocyte lysate with calcium (electrophoresis)", "setting": "[2]", "result": "led to the rapid disappearance of the neosynthesized proteins and the appearance of proteolytic fragments"}, {"measurement": "degradation of the protein in reticulocyte lysate with calcium and m-calpain", "setting": "[3]", "result": "The degradation resistance of other proteins such as dihydrofolate reductase or glyceraldehyde-3-phosphate dehydrogenase under the same experimental conditions"}]}
